The text below walks through data of patent US20170267986A1, “GENERATION OF MANNOSE-6-PHOSPHATE CONTAINING RECOMBINANT ALPHA-N-ACETYL GLUCOSAMINIDASE” (SHIRE HUMAN GENETIC THERAPIES, INC., priority 2014, published 2017).

The target of series [1] is T1, Recombinant human Naglu (rhNaglu).
T1 chain: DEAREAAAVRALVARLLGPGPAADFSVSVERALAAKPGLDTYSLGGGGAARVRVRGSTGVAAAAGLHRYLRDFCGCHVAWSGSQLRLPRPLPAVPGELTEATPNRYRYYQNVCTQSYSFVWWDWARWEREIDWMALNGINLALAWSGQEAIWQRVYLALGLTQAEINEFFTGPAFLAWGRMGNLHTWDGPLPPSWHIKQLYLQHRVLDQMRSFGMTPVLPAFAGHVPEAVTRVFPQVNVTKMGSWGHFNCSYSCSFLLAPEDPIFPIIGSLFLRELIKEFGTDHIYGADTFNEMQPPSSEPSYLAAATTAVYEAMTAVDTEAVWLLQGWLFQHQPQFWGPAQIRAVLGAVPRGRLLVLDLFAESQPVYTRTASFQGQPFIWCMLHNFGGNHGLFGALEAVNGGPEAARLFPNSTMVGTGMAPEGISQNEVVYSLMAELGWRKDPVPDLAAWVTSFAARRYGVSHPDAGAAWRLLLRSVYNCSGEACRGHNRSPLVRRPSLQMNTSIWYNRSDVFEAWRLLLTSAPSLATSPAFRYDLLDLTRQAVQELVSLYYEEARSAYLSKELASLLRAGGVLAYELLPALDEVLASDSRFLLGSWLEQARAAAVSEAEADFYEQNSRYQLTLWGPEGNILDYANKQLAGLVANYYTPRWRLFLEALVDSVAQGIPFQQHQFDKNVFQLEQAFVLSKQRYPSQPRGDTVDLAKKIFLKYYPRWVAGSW

Series [2] concerns the target T2, Naglu-Kif, a high-mannose-containing recombinant human Naglu (before sGNPT modification).
T2 chain: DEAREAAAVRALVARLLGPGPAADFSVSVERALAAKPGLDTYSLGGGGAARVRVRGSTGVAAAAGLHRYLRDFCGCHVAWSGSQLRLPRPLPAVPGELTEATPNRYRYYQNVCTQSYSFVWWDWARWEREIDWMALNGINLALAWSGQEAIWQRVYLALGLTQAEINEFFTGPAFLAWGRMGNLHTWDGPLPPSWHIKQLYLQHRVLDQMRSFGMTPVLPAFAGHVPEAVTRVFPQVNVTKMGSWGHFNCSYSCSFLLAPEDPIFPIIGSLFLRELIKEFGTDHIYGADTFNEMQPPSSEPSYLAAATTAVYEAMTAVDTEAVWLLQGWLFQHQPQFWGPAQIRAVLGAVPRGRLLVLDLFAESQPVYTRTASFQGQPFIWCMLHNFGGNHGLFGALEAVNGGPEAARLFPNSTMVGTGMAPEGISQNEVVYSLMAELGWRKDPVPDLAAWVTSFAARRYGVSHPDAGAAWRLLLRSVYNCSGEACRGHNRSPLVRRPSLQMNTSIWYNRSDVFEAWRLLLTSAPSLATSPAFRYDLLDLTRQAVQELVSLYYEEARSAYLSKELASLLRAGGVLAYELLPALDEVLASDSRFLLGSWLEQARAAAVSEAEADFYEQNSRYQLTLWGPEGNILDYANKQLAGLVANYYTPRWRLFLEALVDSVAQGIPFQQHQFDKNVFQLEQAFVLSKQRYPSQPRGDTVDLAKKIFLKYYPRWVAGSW

A further series addresses T3, CI-M6PR (Homo sapiens, UniProt P11717).
T3 construct: the secreted sCI-M6PR was purified from the tissue culture medium; made in house
Nature of the series: Plate based sCI-M6PR binding assay (ELISA). As to conditions: treated with sGNPT under the same conditions as Naglu-Kif. Here is the method:
(1) Generation of sCI-M6PR (soluble CI-M6PR)—Full length M6PR was expressed in genetically modified tissue culture cells, and the secreted sCI-M6PR was purified from the tissue culture medium using an aminophenyl-M6P conjugated resin (Beljaars et al., 1999). N-terminal sequencing and LC/MS/MS analysis of the obtained protein confirmed the amino acid sequence of the sCI-M6PR, and MALDI analysis confirmed that its molecular mass was 279,492 Da.
100 μl of sCI-M6PR(2.5 μg/ml) in DPBS were coated on MaxiSorp® Nunc-Immuno flat-bottom 96-well plates (Thermo Fisher Scientific, Inc., Sunnyvale, Calif.). After incubation for 1 hour at 37° C., the plates was washed with ELISA wash buffer (0.1% Tween-20 in DPBS). sCI-M6PR coated wells were blocked with 300 μl ELISA blocking buffer (DPBS, 2% BSA, 0.05% Tween 20) at 37° C. for 1 hour. Appropriate dilutions of sGNPT-modified Naglu-Kif (and rhNaglu as control) were made in blocking buffer and added to the wells. After 1 hour incubation at 37° C., the plates were washed with ELISA wash buffer, and 100 μl of HRP-conjugated rabbit anti-Naglu polyclonal antibody #2957 diluted in blocking buffer were added. After 1 hour incubation at 37° C., the plates was washed again with ELISA wash buffer. The ELISA was developed using TMB peroxidase substrate solution (KPL, Inc., Gaithersburg, Mass.) by following the manufacturer's protocol.
sGNPT transfers the phospho-GlcNAc group from UDP-GlcNAc to mannose sugar, and the resulting mannose-6-phosphate-GlcNAc is called the Capped-M6P. During the normal intracellular glycosylation process, the decapping enzyme (N-acetylglucosamine 1-phosphodiester α-N-acetyglucosaminidase) removes the GlcNAc from the Capped-M6P, to generate M6P. But without decapping, the Capped-M6P can also bind to CI-M6PR. Capped-M6P binds to domain 5 of CI-M6PR rather than to domain 3 or 9, as M6P does (Bohnsack et al. 2009). The amount of Capped-M6P on Naglu-Kif can be indirectly evaluated using a CI-M6PR plate binding assay. In this binding assay the affinity with which Naglu-Kif bound to CI-M6PR increased in proportion to the amount of sGNPT used (35 μg, 70 μg and 140 (corresponding to about 4.2 μM) (green, red and empty circle in FIG. 8, respectively)) to modify Naglu-Kif and thus the extent of Capped-M6P found on Naglu-Kif (FIG. 8). […] These binding reactions were repeated in two different buffer systems, i.e., in a sodium acetate buffer (40 mM NaAc pH 6.5, 10 mM MnCl2, 10 mM MgCl2) and in a Tris buffer (50 mM Tris pH 7.4, 10 mM MnCl2, 10 mM MgCl2), which gave similar results. Contrary to Naglu-Kif, rhNaglu was not phosphorylated by sGNPT under the same conditions due to the lack of high-mannose glycans.
A general note: In an ELISA, binding on a coated surface is turned into a signal by an enzyme label.

In a further series the target is T4, rhNaglu (Homo sapiens, UniProt P54802).
T4 construct: The N-terminal 23 amino acids are cleaved as the precursor protein enters the endoplasmic reticulum, resulting in a mature form; made in house; host or cells: human fibrosarcoma HT1080 cell clone over-expressing rhNaglu
T4 sequence (P54802 24-743): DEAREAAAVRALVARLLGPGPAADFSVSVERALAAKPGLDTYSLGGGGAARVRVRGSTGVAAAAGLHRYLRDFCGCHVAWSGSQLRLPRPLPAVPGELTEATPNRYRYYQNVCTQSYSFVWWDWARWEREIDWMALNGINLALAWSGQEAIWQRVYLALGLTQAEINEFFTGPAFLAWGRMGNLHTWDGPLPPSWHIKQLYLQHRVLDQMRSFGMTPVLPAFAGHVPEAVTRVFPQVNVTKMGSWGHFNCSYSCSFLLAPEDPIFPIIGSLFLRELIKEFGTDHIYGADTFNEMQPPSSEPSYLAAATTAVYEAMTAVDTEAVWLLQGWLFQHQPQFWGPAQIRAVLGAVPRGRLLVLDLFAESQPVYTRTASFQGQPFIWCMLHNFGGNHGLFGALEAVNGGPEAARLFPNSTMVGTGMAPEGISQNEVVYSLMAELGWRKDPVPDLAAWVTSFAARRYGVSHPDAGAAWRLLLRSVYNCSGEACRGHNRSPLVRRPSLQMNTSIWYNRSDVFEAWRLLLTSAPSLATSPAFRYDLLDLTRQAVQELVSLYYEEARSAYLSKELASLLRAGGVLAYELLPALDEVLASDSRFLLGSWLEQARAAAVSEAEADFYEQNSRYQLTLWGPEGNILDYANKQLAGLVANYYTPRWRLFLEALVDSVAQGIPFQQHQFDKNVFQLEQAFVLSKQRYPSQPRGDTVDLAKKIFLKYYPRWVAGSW
Nature of the series: Naglu substrate analysis: hydrolysis of UDP-sugars by rhNaglu, PAD-HPLC. It counts as biochemical. To be noted: 0.8 mM UDP-GlcNAc, 37° C., 1 hour. Here is the method:
Recombinant human Naglu was co-incubated with uridine diphosphate N-acetylglucosamine (UDP-GlcNAc) or uridine diphosphate N-acetyl galactosamine (UDP-GalNAc). UDP-GlcNAc, GlcNAc (N-acetylglucosamine) and UDP-GalNAc were detected using PAD-HPLC (Pulsed Amperometric Detection-High Pressure Liquid Chromatography) that was modified after Chavaroche et al. 2011.
Recombinant human Naglu was dialyzed into Tris buffer (40 mM Tris pH 7.15, 100 mM NaCl, 4 mM MgCl2, and 4 mM MnCl2) and concentrated with VivaSpin® sample concentrators having a 30 kDa cut-off (Viva Products, Inc., Littleton, Mass.). […]
Samples were then subjected to centrifugation at 10,000 rpm, and the resulting supernatants were loaded on PA10 columns and detected by PAD-HPLC (Pulsed Amperometric Detection-High Pressure Liquid Chromatography) (Dionex ICS-3000 Ion Chromatography System (Thermo Fisher Scientific, Inc., Sunnyvale, Calif.)). […] The peak areas for the eluted UDP-GlcNAc were measured, and the reductions of the area under the curve (AUC) in response to increased concentrations of rhNaglu were determined (FIG. 1A). A new peak at 10.7 minutes was detected on the chromatograms of samples treated with concentrations of rhNaglu of 23.4 μg/ml and above. […] The peak areas for the eluted GlcNAc were measured, and the increases of the AUC in response to increased concentrations of rhNaglu were determined (FIG. 1B). […]

B1: Soluble human N-acetylglucosamine-1-phosphotransferase (sGNPT), HPC4 tagged (protein)
chain: DEDQVDPRLIDGKWSRDQYHVLFDSYRDNIAGKSFQNRLCLPMPIDVVYTWVNGTDLELLKELQQVREQMEEEQKAMREILGKNTTEPTKKSEKQLECLLTHCIKVPMLVLDPALPANITLKDLPSLYPSFHSASDIFNVAKPKNPSTNVSVVVFDSTKDVEDAHSGLLKGNSRQTVWRGYLTTDKEVPGLVLMQDLAFLSGFPPTFKETNQLKTKLPENLSSKVKLLQLYSEASVALLKLNNPKDFQELNKQTKKNMTIDGKELTISPAYLLWDLSAISQSKQDEDISASRFEDNEELRYSLRSIERHAPWVRNIFIVTNGQIPSWLNLDNPRVTIVTHQDVFRNLSHLPTFSSPAIESHIHRIEGLSQKFIYLNDDVMFGKDVWPDDFYSHSKGQKVYLTWPVPNCAEGCPGSWIKDGYCDKACNNSACDWDGGDCSGNSGGSRYIAGGGGTGSIGVGQPWQFGGGINSVSYCNQGCANSWLADKFCDQACNVLSCGFDAGDCGQDHFHELYKVILLPNQTHYIIPKGECLPYFSFAEVAKRGVEGAYSDNPIIRHASIANKWKTIHLIMHSGMNATTIHFNLTFQNTNDEEFKMQITVEVDTREGPKLNSTAQKGYENLVSPITLLPEAEILFEDIPKEKRFPKFKRHDVNSTRRAQEEVKIPLVNISLLPKDAQLSLNTLDLQLEHGDITLKGYNLSKSALLRSFLMNSQHAKIKNQAIITDETNDSLVAPQEKQVHKSILPNSLGVSERLQRLTFPAVSVKVNGHDQGQNPPLDLETTARFRVETHTQKTIGGNVTKEKPPSLIVPLESQMTKEKKITGKEKENSRMEENAENHIGVTEVLLGRKLQHYTDSYLGFLPWEKKKYFQDLLDEEESLKTQLAYFTDSKNRARYKRDTFADSLRYVNKILNSKFGFTSRKVPAHMPHMIDRIVMQELQDMFPEEFDKTSFHKVRHSEDMQFAFSYFYYLMSAVQPLNISQVFDEVDTDQSGVLSDREIRTLATRIHELPLSLQDLTGLEHMLINCSKMLPADITQLNNIPPTQESYYDPNLPPVTKSLVTNCKPVTDKIHKAYKDKNKYRFEIMGEEEIAFKMIRTNVSHVVGQLDDIRKNPRKFVCLNDNIDHNHKDAQTVKAVLRDFYESMFPIPSQFELPREYRNRFLHMHELQEWRAYRDKL
For the molecule B1, the “in vitro phosphorylation by sGNPT” value in series [1] is “rhNaglu was not phosphorylated by sGNPT under the same conditions due to the lack of high-mannose glycans”. Further, in series [2], the pmol M6P/pmol Naglu Kif (M6P monosaccharide quantitation by PAD-HPLC after in vitro phosphorylation; +70 ug GNPT, 50 mM Tris pH 7.4, 10 mM MnCl2, 10 mM MgCl2) (pmol M6P/pmol Naglu Kif) turned out to be 1.45; the pmol M6P/pmol Naglu Kif (M6P monosaccharide quantitation by PAD-HPLC after in vitro phosphorylation; +70 ug GNPT, 50 mM sodium acetate pH 6.5, 20 mM MnCl2) (pmol M6P/pmol Naglu Kif) was found to be 0.12; the pmol M6P/pmol Naglu Kif (M6P monosaccharide quantitation by PAD-HPLC after in vitro phosphorylation; +140 ug GNPT, 50 mM sodium acetate pH 6.5, 20 mM MnCl2) (pmol M6P/pmol Naglu Kif) is 0.64.

B2: rhNaglu: recombinant human alpha-N-acetyl-glucosaminidase purified from human fibrosarcoma HT1080 cells engineered to over-express it (protein)
chain: DEAREAAAVRALVARLLGPGPAADFSVSVERALAAKPGLDTYSLGGGGAARVRVRGSTGVAAAAGLHRYLRDFCGCHVAWSGSQLRLPRPLPAVPGELTEATPNRYRYYQNVCTQSYSFVWWDWARWEREIDWMALNGINLALAWSGQEAIWQRVYLALGLTQAEINEFFTGPAFLAWGRMGNLHTWDGPLPPSWHIKQLYLQHRVLDQMRSFGMTPVLPAFAGHVPEAVTRVFPQVNVTKMGSWGHFNCSYSCSFLLAPEDPIFPIIGSLFLRELIKEFGTDHIYGADTFNEMQPPSSEPSYLAAATTAVYEAMTAVDTEAVWLLQGWLFQHQPQFWGPAQIRAVLGAVPRGRLLVLDLFAESQPVYTRTASFQGQPFIWCMLHNFGGNHGLFGALEAVNGGPEAARLFPNSTMVGTGMAPEGISQNEVVYSLMAELGWRKDPVPDLAAWVTSFAARRYGVSHPDAGAAWRLLLRSVYNCSGEACRGHNRSPLVRRPSLQMNTSIWYNRSDVFEAWRLLLTSAPSLATSPAFRYDLLDLTRQAVQELVSLYYEEARSAYLSKELASLLRAGGVLAYELLPALDEVLASDSRFLLGSWLEQARAAAVSEAEADFYEQNSRYQLTLWGPEGNILDYANKQLAGLVANYYTPRWRLFLEALVDSVAQGIPFQQHQFDKNVFQLEQAFVLSKQRYPSQPRGDTVDLAKKIFLKYYPRWVAGSW
In the case of B2, the “binding to CI-M6PR” value with CI-M6PR is recorded as “did not bind”. In the series with rhNaglu, the “minimum rhNaglu concentration required for detection of hydrolysis of UDP-GlcNAc” value is 23.4 µg/mL.
